# Test results reported in the supplement of paper PMC9170038.
# Tested on: MS2 coat protein
# Test: apparent KD of MS2 coat protein; designed switch direction (-1 OFF switch, 1 ON switch): -1; higher = weaker reporter binding
# How it was run: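 Each step of the titration lasted 0.8–1.5 h at the lowest concentration and 10–20 min at the highest. The protein, SNAP-549-labelled MS2 coat protein, went from 0.7 or 1.5 nM doubling to 3 µM over RNA switches transcribed on Illumina chips by stalled E. coli RNA polymerase. Normalised cluster fluorescence was curve-fitted, and the per-design median over clusters is given as apparent KD.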
# [1] = input ligand: microRNA oligo, concentration not stated
# [2] = Eterna round: R95, input ligand: FMN 200 uM
# [3] = Eterna round: R95, input ligand: microRNA oligo, concentration not stated
# [4] = Eterna round: R95, input ligand: none
Sequence,apparent KD of MS2 coat protein (input ligand: FMN 200 uM),apparent KD of MS2 coat protein [1],apparent KD of MS2 coat protein (input ligand: none),apparent KD of MS2 coat protein [3],also measured
"UUCUUUAUACGAGGAUAUCAUACAUGAGGAUCACCCAUGUGGCUGGGUCUGUUUUUAUAUAAUAUUGAGAAGGCGUUUUUCUAU [JR_ExcNG2_Sub073] (Eterna round: R96, puzzle: Exclusion NG 2)",291 nM,79.8 nM,78.9 nM,–,–
"UGAUUGUUUACCAGGUUAUACAUGAGGAUCACCCAUGUAGAUCCUACGUGCGCGUUGUUCCGCUCGUCUUAUUGCCA [Sensor-V1 #80] (Eterna round: R97, puzzle: Sensor, turn-off variant 1)",22.6 nM,–,24.8 nM,–,–
"UUAUUGCAAGCAAGAUCCCACAUGAGGAUCACCCAUGUGCUCGUCUUAUAAGGUACUGUGACGAAAGUCACGGUACC [Sensor 3, v1 - 99] (puzzle: Sensor v3, turn-off variant 1)",–,–,–,462 nM,apparent KD of MS2 coat protein [2]: 26 nM; apparent KD of MS2 coat protein [4]: 30.6 nM
"UACAUGAGGAUCACCCAUGUUUUGUCGUGUAUGGUAUUUAUCUAGGAUAUCAUUUUAUUUAGGUAUGAGAAGGAGAAUAUUAAU [JMF's solution 93] (Eterna round: R96, puzzle: Exclusion NG 3)",–,23.9 nM,–,–,–
"GGUGAAGCAGGAUAUGUAUCGAUAUACAUGAGGAUCACCCAUGUCAUGUACAAAUUGCAUAUAGAAGGGCUUCACC [Exclusion 5 (FMN-MS2 slide v.4)] (Eterna round: R97, puzzle: Exclusion 5)",168 nM,–,47.4 nM,–,–
CCGCAAAUGCAGGAUAUCGUAUCGGAAACGAUACGAGAAGGGUAAACAUGAGGAUCACCCAUGUUCCUUAACGG [Mat - Exclusion 6 - Eli Mod - D98] (puzzle: Exclusion 6),–,–,–,16.3 nM,–
"UACAUGAGGAUCACCCAUGUUUUGUCGUGUAUGGUAUUUAUCUAGGAUAUCAUUUAAUUUAGUUAUGAGAAGGAGAAUAUUAAU [JMF's solution 85] (Eterna round: R96, puzzle: Exclusion NG 3)",31.3 nM,17 nM,27.8 nM,–,–
GAGGUGUUAGGAUAUCGGAGAUGGAGACCGACGGGAUGAGCCGAGAAGGAACAUGAGGAUCACCCAUGUAGGUG [JR_Exclu4_Sub033] (puzzle: Exclusion 4),–,–,–,386 nM,–
CCAUACCGAGGAUAUACAUGAGGAUCACCCAUGUCAAAACCACGUGUACGGCGGUCUUGUAGAAGGCGGAAAUA [Onbisodi] (puzzle: Exclusion 3),–,–,–,9.99 nM,–
"CAUGAUUGGCGAGGAUAUUGACCUAGUUCGCGACGAGAAGGCGCCUGUCACAUGAGGAUCACCCAUGUGAAUCUGGUGAAAGAG [Ex NG1 #91] (Eterna round: R96, puzzle: Exclusion NG 1)",14.5 nM,11.4 nM,20.3 nM,–,–
AGCCCUUGUGUCAGGAUAUGCAUCCUUAAUGGACGGCAGAAGGGACAUGAGGAUCACCCAUGUAAAUAGAAAAU [Sodixeti] (puzzle: Brourd's mod of Exclusion 4),–,–,–,111 nM,apparent KD of MS2 coat protein [2]: 30.1 nM; apparent KD of MS2 coat protein [4]: 177 nM
CGGUGCUGAGGAUAUACAUGAGGAUCACCCAUGUGUUCCAGCUAGCGUACUGGCGGAUGUAGAAGGCGGUACUG [JL-ex3-3.40 Brourd mod] (puzzle: Exclusion 3),–,–,–,13.1 nM,apparent KD of MS2 coat protein [2]: 52.8 nM; apparent KD of MS2 coat protein [4]: 17.7 nM
"AUGUACCGGUGAGGAUAUUUUUAAUAGAGCUUUAUGAUAUACAUGAGGAUCACCCAUGUUACUUUAAAGAAGGCAUCGGAUUAA [Mat - Exclusion NG 2 - Mod of JL - D90] (Eterna round: R96, puzzle: Exclusion NG 2)",–,12.8 nM,–,–,–
"AACAAGCUUUAAAGAUCCCACAUGAGGAUCACCCAUGUGCUCGUCUUAUAACGUACUGUGACGAAAGUCACGGUACG [JL TOV1 3.25] (Eterna round: R97, puzzle: Sensor, turn-off variant 1)",27.7 nM,–,37.4 nM,–,–
"UAUGUGUCAGGAUAUUAAUUAUAACAGAAUUUAACAAUGAUUAAGAAGGGACAUGAGGAUCACCCAUGUUCAUC [JR_Ex4_Sub024] (Eterna round: R97, puzzle: Exclusion 4)",22.7 nM,–,20.4 nM,–,–
"CACCGUUACAGAGGAUAUGAUACAUGAGGAUCACCCAUGUAAUAAAUGAGAAUUUCGAAUGUACCUCAGAAGGCUGGAACCGGC [Ostricism 79 - Jieux - Exclusion NG 2] (Eterna round: R96, puzzle: Exclusion NG 2)",–,31.1 nM,–,–,–
AGAUGACUGGAGGAUAUCCGAUGCUUCCUGCCAGGAGAAGGCCGGACAUGAGGAUCACCCAUGUGGUGAGCUCG [Vezaatinle] (puzzle: Exclusion 6),–,–,–,347 nM,apparent KD of MS2 coat protein [2]: 329 nM; apparent KD of MS2 coat protein [4]: 444 nM
UCAAGUAUGUAGGAUAUCGAUGUCUGCGGACAUCGAGAAGGACGUACAUGAGGAUCACCCAUGUAACUUGCAUG [Exclusion 6 - B - 10:c] (puzzle: Exclusion 6),–,–,–,70.9 nM,–

Sequence,apparent KD of MS2 coat protein (input ligand: FMN 200 uM),apparent KD of MS2 coat protein [1],apparent KD of MS2 coat protein (input ligand: none),apparent KD of MS2 coat protein [3],also measured
GCAUUUGAGCAGGAUAUAGCCUGAACAUAAUGGUUAGAAGGGCUCACAUGAGGAUCACCCAUGUGGUGUCCUAA [Rateria] (puzzle: Exclusion 6),–,–,–,11.6 nM,–
"UUUGGUUUGCGAGGAUAUGCUUUUAGUAAGUUAGCAGAAGGCGCGUUACAUAGAACCUCUUGUUACAUGAGGAUCACCCAUGUU [JR_ExcNG1_Sub037] (Eterna round: R96, puzzle: Exclusion NG 1)",–,77.3 nM,–,–,–
"CUGAGAUGAGGAUAUACAUGAGGAUCACCCAUGUAAAGUAGCUUGCGUACAGGCAGAUGUAGAAGGCAUUUCGG [Mod of JL 4 - Jieux - Exclusion 3] (Eterna round: R97, puzzle: Exclusion 3)",44.7 nM,–,25.3 nM,–,–
"GUUAUGUCAGGAUAUGCUAAUGAUGAAUGAUCAGACAUGAUGUAGAAGGGACAUGAGGAUCACCCAUGUAAUAU [EX4 #7] (Eterna round: R97, puzzle: Exclusion 4)",32.3 nM,–,25 nM,–,–
"UUGUUAUAUGUAGGAUAUGCGUAUUGUUAUUAUGCAGAAGGACAUGAGGAUCACCCAUGUAUAUUAUUAUUAUAUAUUAUAUAU [Title] (Eterna round: R96, puzzle: Exclusion NG 1)",87.8 nM,22.2 nM,27.4 nM,–,–
"CCUCAUAGUCAGGAUAUCAGCGCGUUCGGCAAAUGAGAAGGGACCACAUGAGGAUCACCCAUGUAAAACCAAAA [Beencema] (Eterna round: R97, puzzle: Exclusion 6)",44.1 nM,–,36 nM,–,–
"GUGGUGGGUUUUCCGAGUAACAUGAGGAUCACCCAUGUAGAAGUUGAAGGUAUCAAGCGAAUGGCUCGUCAAAUGUG [JR_SV3TOV1_Sub047] (puzzle: Sensor v3, turn-off variant 1)",–,–,–,17.5 nM,apparent KD of MS2 coat protein [2]: 42.3 nM; apparent KD of MS2 coat protein [4]: 46.4 nM
UAUUAGCUAGGAUAUACAUGAGGAUCACCCAUGUCACGGGUCCACUUGUCCUAUGCGUGUAGAAGGAGCGACCC [JL Ceriza mod 3] (puzzle: Exclusion 3),–,–,–,20.7 nM,–
"UAUGGUAAAGUCAGGAUAUACGUGCAGUUUUCUAGGUAGAAGGGACAUGAGGAUCACCCAUGUAUGGUAGUGUU [Ex4 #46] (Eterna round: R97, puzzle: Brourd's mod of Exclusion 4)",95.1 nM,–,83.5 nM,–,–
"AAAACAAAGCUAGGAUAUUGUCCGAUGUAGCGAUAAGAAGGAGCAGAGUACGUCUGGUCCACAUGAGGAUCACCCAUGUACAAA [Inmaon] (Eterna round: R96, puzzle: Exclusion NG 1)",183 nM,79.6 nM,67.5 nM,–,–
"AGAUCGUCAGGAUAUACAUGAGGAUCACCCAUGUGUAGUUCCAAUUGGACUACAACAUGUAGAAGGGACGAUCG [Exclusion 3 (MOD1 of #1 Marzena11)] (Eterna round: R97, puzzle: Exclusion 3)",1060 nM,–,675 nM,–,–
UUUUAACAUGAGGAUCACCCAUGUGAGGAUAUCGAAAUUUAUAUUAAUAUUAAUUAAUCGAGAAGGCACAUUUU [JMF 28] (puzzle: Exclusion 1),–,–,–,97.4 nM,–
"GUAACAACUAGAGGAUAUCAGCACGUGUAGUGCUGAGAAGGCUAGAGUUACAUGAGGAUCACCCAUGUCUAGAGAUCAUUAAUU [ENG1/13-A3] (Eterna round: R96, puzzle: Exclusion NG 1)",142 nM,52.9 nM,69.3 nM,–,–
"GUUUUCAGACGGAGAUCCUACAUGAGGAUCACCCAUGUCUCUCUUGUUCCUUGCUCGUCUUUUCCUCCUCUGUUCUC [Elimod 33 - Jieux - Sensor, turn-off variant 1] (Eterna round: R97, puzzle: Sensor, turn-off variant 1)",657 nM,–,847 nM,–,–
"UUUUUAAAUGAAGGAUAUACUUAACAUGAGGAUCACCCAUGUGGUGUUGUGAGUGAGUGAGUUUAGUAGAAGGUCAAUUCUUUU [JMF's solution 86] (Eterna round: R96, puzzle: Exclusion NG 2)",619 nM,300 nM,334 nM,–,–
GUGGUACAUGAGGAUCACCCAUGUCAGGAUAUCGUGUGUUUUUUUUCGGCCGCGCGCGCGAGAAGGGACGUCUU (puzzle: Exclusion 1),–,–,–,16.8 nM,–
"GAUGAGGUAGGAUAUACGAUAAUAUAGGGUAGAUAUAUAACACAUGAGGAUCACCCAUGUAGAAGGACCAGUAG [Mat - Exclusion 2 - Mod of my Tesla design - D66] (Eterna round: R96, puzzle: Exclusion 2)",143 nM,30.3 nM,42.3 nM,–,–
